Data taken from US20220010021A1 (Sanofi, published 2022).

Target: human FGFR1c + KLB receptor complex on HEK293 iLite FGF21 reporter cells (human, UniProt P11362 22-822; Q86Z14 1-1044)
Experiment: cell-based or functional assay

Chain of human FGFR1c + KLB receptor complex on HEK293 iLite FGF21 reporter cells (P11362 22-822, chain 1 of 2): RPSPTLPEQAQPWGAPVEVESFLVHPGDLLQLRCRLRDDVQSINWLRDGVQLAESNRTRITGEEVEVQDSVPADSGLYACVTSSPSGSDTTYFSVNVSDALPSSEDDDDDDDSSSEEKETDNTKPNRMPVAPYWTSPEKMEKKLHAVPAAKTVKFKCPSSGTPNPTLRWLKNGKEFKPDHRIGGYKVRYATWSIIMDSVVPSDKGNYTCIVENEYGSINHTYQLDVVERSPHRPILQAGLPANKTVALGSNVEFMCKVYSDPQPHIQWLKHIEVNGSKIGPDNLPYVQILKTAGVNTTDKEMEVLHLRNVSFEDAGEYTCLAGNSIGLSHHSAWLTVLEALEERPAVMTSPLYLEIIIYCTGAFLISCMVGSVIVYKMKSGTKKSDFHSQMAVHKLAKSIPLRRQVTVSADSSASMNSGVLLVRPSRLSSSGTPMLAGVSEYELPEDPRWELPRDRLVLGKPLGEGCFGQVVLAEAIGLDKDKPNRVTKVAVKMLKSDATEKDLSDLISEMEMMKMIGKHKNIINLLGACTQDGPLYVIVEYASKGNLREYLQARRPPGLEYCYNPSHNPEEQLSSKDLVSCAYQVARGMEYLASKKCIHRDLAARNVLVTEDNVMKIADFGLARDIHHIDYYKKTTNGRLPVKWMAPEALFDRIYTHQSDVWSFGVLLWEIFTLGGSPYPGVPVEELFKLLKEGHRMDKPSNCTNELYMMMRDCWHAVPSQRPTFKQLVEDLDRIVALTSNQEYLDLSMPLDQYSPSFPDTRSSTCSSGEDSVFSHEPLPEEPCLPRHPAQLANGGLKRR
Chain of human FGFR1c + KLB receptor complex on HEK293 iLite FGF21 reporter cells (Q86Z14 whole entry, chain 2 of 2): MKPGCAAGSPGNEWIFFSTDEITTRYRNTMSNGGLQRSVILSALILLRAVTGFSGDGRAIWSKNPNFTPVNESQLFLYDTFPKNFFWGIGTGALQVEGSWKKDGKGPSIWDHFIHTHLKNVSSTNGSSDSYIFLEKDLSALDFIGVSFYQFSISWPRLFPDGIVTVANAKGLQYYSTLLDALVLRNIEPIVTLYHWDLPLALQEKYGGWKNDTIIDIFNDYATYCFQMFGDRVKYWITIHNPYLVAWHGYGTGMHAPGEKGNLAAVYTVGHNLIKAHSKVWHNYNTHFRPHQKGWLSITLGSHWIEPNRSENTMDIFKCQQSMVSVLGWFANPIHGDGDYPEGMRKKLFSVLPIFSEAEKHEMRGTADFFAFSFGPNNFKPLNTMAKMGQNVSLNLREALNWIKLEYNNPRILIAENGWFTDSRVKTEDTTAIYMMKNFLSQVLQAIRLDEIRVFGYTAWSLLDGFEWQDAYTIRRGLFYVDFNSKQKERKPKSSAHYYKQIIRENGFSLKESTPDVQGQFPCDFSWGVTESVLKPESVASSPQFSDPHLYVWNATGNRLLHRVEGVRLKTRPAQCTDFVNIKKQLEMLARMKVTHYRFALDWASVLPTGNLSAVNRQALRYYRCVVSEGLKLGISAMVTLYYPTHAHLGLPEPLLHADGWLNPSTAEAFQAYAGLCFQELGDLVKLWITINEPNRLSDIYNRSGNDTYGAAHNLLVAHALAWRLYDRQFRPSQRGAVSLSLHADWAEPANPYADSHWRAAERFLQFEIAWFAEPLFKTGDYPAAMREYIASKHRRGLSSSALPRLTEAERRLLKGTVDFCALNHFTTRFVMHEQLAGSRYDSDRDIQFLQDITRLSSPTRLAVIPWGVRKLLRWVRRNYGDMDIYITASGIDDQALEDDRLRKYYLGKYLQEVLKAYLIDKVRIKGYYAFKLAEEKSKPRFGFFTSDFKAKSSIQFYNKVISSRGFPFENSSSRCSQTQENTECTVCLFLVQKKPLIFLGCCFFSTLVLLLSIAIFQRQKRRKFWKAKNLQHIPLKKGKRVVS

Row | EC50 [nM] | Binder
1 | > 100 | Ab0382 (antibody, IgG4, V domains shown) VH: QVTLKESGPVLVKPTETLTLTCTVSGFSLNNARVGVSWIRQPPGKALEWLASIWSNDEKSYSTSLKSRLTISKDTSKSQVVLTMTNMDPVDTATYYCARSVVTGGYYYEGMDVWGQGTTVTVSS VL: SYVLTQPPSVSVAPGQTARITCGGNNIGSESVHWYQQKPGQAPVLVVDDSDRPSGIPERFSGSNSGNTATLTISRVEAGDEADYYCQVFDGNCVCVVFGGGTKLTVLG
2 | > 100 | Ab0383 (antibody, IgG4, V domains shown) VH: QVTLKESGPVLVKPTETLTLTCTVSGFSLNNARVGVSWIRQPPGKALEWLAWIFSNDEKSYSTSLKSRLTISKDTSKSQVVLTMTNMDPVDTATYYCARSVVTGGYYYEGMDVWGQGTTVTVSS VL: SYVLTQPPSVSVAPGQTARITCGGNNIGSESVHWYQQKPGQAPVLVVDDSDRPSGIPERFSGSNSGNTATLTISRVEAGDEADYYCQVFDGNSVHVVFGGGTKLTVLG
3 | > 100 | Ab0400 (antibody, IgG4, V domains shown) VH: QVTLKESGPVLVKPTETLTLTCTVSGFSLNNARVGVSWIRQPPGKALEWLASIWSNDEKSYSTSLKSRLTISKDTSKSQVVLTMTNMDPVDTATYYCARSVVTGGYYYEGMDVWGQGTTVTVSS VL: SYVLTQPPSVSVAPGQTARITCGGNNIGSESVHWYQQKPGQAPVLVVDDSDRPSGIPERFSGSNSGNTATLTISRVEAGDEADYYCQVFDGNCACVVFGGGTKLTVLG
4 | > 100 | Ab0393 (antibody, IgG4, V domains shown) VH: QVTLKESGPVLVKPTETLTLTCTVSGFSLNNARVGVSWIRQPPGKALEWLAWIFSNDEKSYSTSLKSRLTISKDTSKSQVVLTMTNMDPVDTATYYCARSVVTGGYYYEGMDVWGQGTTVTVSS VL: SYVLTQPPSVSVAPGQTARITCGGNNIGSESVHWYQQKPGQAPVLVVDDSDRPSGIPERFSGSNSGNTATLTISRVEAGDEADYYCQVFDGNCSCVVFGGGTKLTVLG
5 | > 100 | Ab0391 (antibody, IgG4, V domains shown) VH: QVTLKESGPVLVKPTETLTLTCTVSGFSLNNARVGVSWIRQPPGKALEWLASIWSNDEKSYSTSLKSRLTISKDTSKSQVVLTMTNMDPVDTATYYCARSVVTGGYYYEGMDVWGQGTTVTVSS VL: SYVLTQPPSVSVAPGQTARITCGGNNIGSESVHWYQQKPGQAPVLVVDDSDRPSGIPERFSGSNSGNTATLTISRVEAGDEADYYCQVFDGNCSCVVFGGGTKLTVLG
6 | > 100 | Ab0398 (antibody, IgG4, V domains shown) VH: QVTLKESGPVLVKPTETLTLTCTVSGFSLNNARVGVSWIRQPPGKALEWLASIWSNDEKSYSTSLKSRLTISKDTSKSQVVLTMTNMDPVDTATYYCARSVVTGGYYYEGMDVWGQGTTVTVSS VL: CYVLTQPPSVSVAPGQTARITCGGNNIGSESVHWYQQKPGQAPVLVVDDSDRPSGIPERFSGSNSGNTATLTISRVEAGDEADYYCQVFDGNCAHVVFGGGTKLTVLG
7 | > 100 | Ab0396 (antibody, IgG4, V domains shown) VH: QVTLKESGPVLVKPTETLTLTCTVSGFSLNNARVGVSWIRQPPGKALEWLASIWSNDEKSYSTSLKSRLTISKDTSKSQVVLTMTNMDPVDTATYYCARSVVTGGYYYEGMDVWGQGTTVTVSS VL: SYVLTQPPSVSVAPGQTARITCGGNNIGSESVHWYQQKPGQAPVLVVDDSDRPSGIPERFSGSNSGNTATLTISRVEAGDEADYYCQVFDGNSAHVVFGGGTKLTVLG
8 | > 100 | Ab0390 (antibody, IgG4, V domains shown) VH: QVTLKESGPVLVKPTETLTLTCTVSGFSLNNARVGVSWIRQPPGKALEWLAHIWSNDEKSYSTSLKSRLTISKDTSKSQVVLTMTNMDPVDTATYYCARSVVTGGYYYEGMDVWGQGTTVTVSS VL: SYVLTQPPSVSVAPGQTARITCGGNNIGSESVHWYQQKPGQAPVLVVDDSDRPSGIPERFSGSNSGNTATLTISRVEAGDEADYYCQVFDGNCSCVVFGGGTKLTVLG
9 | > 100 | Ab0403 (antibody, IgG4, V domains shown) VH: QVTLKESGPVLVKPTETLTLTCTVSGFSLNNARVGVSWIRQPPGKALEWLAWIFSNDEKSYSTSLKSRLTISKDTSKSQVVLTMTNMDPVDTATYYCARSVVTGGYYYEGMDVWGQGTTVTVSS VL: CYVLTQPPSVSVAPGQTARITCGGNNIGSESVHWYQQKPGQAPVLVVDDSDRPSGIPERFSGSNSGNTATLTISRVEAGDEADYYCQVFDGNCAHVVFGGGTKLTVLG
10 | > 100 | Ab0397 (antibody, IgG4, V domains shown) VH: QVTLKESGPVLVKPTETLTLTCTVSGFSLNNARVGVSWIRQPPGKALEWLAHIWSNDEKSYSTSLKSRLTISKDTSKSQVVLTMTNMDPVDTATYYCARSVVTGGYYYEGMDVWGQGTTVTVSS VL: CYVLTQPPSVSVAPGQTARITCGGNNIGSESVHWYQQKPGQAPVLVVDDSDRPSGIPERFSGSNSGNTATLTISRVEAGDEADYYCQVFDGNCAHVVFGGGTKLTVLG
11 | > 100 | Ab0392 (antibody, IgG4, V domains shown) VH: QVTLKESGPVLVKPTETLTLTCTVSGFSLNNARVGVSWIRQPPGKALEWLAWIFSNDEKSYSTSLKSRLTISKDTSKSQVVLTMTNMDPVDTATYYCARSVVTGGYYYEGMDVWGQGTTVTVSS VL: SYVLTQPPSVSVAPGQTARITCGGNNIGSESVHWYQQKPGQAPVLVVDDSDRPSGIPERFSGSNSGNTATLTISRVEAGDEADYYCQVFDGNSSHVVFGGGTKLTVLG
12 | > 100 | Ab0394 (antibody, IgG4, V domains shown) VH: QVTLKESGPVLVKPTETLTLTCTVSGFSLNNARVGVSWIRQPPGKALEWLAWIFSNDEKSYSTSLKSRLTISKDTSKSQVVLTMTNMDPVDTATYYCARSVVTGGYYYEGMDVWGQGTTVTVSS VL: CYVLTQPPSVSVAPGQTARITCGGNNIGSESVHWYQQKPGQAPVLVVDDSDRPSGIPERFSGSNSGNTATLTISRVEAGDEADYYCQVFDGNCSHVVFGGGTKLTVLG
13 | > 100 | Ab0402 (antibody, IgG4, V domains shown) VH: QVTLKESGPVLVKPTETLTLTCTVSGFSLNNARVGVSWIRQPPGKALEWLAWIFSNDEKSYSTSLKSRLTISKDTSKSQVVLTMTNMDPVDTATYYCARSVVTGGYYYEGMDVWGQGTTVTVSS VL: SYVLTQPPSVSVAPGQTARITCGGNNIGSESVHWYQQKPGQAPVLVVDDSDRPSGIPERFSGSNSGNTATLTISRVEAGDEADYYCQVFDGNCACVVFGGGTKLTVLG
14 | > 100 | Ab0389 (antibody, IgG4, V domains shown) VH: QVTLKESGPVLVKPTETLTLTCTVSGFSLNNARVGVSWIRQPPGKALEWLASIWSNDEKSYSTSLKSRLTISKDTSKSQVVLTMTNMDPVDTATYYCARSVVTGGYYYEGMDVWGQGTTVTVSS VL: CYVLTQPPSVSVAPGQTARITCGGNNIGSESVHWYQQKPGQAPVLVVDDSDRPSGIPERFSGSNSGNTATLTISRVEAGDEADYYCQVFDGNCSHVVFGGGTKLTVLG
15 | > 100 | Ab0401 (antibody, IgG4, V domains shown) VH: QVTLKESGPVLVKPTETLTLTCTVSGFSLNNARVGVSWIRQPPGKALEWLAWIFSNDEKSYSTSLKSRLTISKDTSKSQVVLTMTNMDPVDTATYYCARSVVTGGYYYEGMDVWGQGTTVTVSS VL: SYVLTQPPSVSVAPGQTARITCGGNNIGSESVHWYQQKPGQAPVLVVDDSDRPSGIPERFSGSNSGNTATLTISRVEAGDEADYYCQVFDGNSAHVVFGGGTKLTVLG
16 | > 100 | Ab0399 (antibody, IgG4, V domains shown) VH: QVTLKESGPVLVKPTETLTLTCTVSGFSLNNARVGVSWIRQPPGKALEWLAHIWSNDEKSYSTSLKSRLTISKDTSKSQVVLTMTNMDPVDTATYYCARSVVTGGYYYEGMDVWGQGTTVTVSS VL: SYVLTQPPSVSVAPGQTARITCGGNNIGSESVHWYQQKPGQAPVLVVDDSDRPSGIPERFSGSNSGNTATLTISRVEAGDEADYYCQVFDGNCACVVFGGGTKLTVLG
